Patent US20200338209A1, “ANTI-B7-H3 ANTIBODIES AND ANTIBODY DRUG CONJUGATES” (AbbVie Inc., priority 2016, published 2020)

T1: human B7-H3 (4Ig-B7-H3 variant) (Homo sapiens, UniProt Q5ZPR3)
T1 construct: His tag (6xHis) (C)
T1 sequence (Q5ZPR3 with tags, fused parts or gaps): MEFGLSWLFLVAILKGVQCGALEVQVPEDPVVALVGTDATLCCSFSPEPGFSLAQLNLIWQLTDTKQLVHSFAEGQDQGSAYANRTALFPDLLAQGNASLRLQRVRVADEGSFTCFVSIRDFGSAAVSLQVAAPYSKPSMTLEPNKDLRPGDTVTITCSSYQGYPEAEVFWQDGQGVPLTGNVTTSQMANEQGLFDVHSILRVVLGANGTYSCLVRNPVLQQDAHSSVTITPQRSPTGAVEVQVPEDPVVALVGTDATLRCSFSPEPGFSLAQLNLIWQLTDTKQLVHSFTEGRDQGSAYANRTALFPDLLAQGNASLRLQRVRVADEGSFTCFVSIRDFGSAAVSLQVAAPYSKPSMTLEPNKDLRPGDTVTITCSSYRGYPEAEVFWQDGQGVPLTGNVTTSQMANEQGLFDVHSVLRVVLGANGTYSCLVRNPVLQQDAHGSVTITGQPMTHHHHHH


Experiments:
[1] = test system: cyno B7-H3; assay: Biacore T200 SPR binding kinetics, mAb capture, soluble ECD of cyno B7-H3; set-up: species or system cynomolgus monkey; conditions: 1:1 binding model
Sequence of cyno B7-H3 (as listed by the source): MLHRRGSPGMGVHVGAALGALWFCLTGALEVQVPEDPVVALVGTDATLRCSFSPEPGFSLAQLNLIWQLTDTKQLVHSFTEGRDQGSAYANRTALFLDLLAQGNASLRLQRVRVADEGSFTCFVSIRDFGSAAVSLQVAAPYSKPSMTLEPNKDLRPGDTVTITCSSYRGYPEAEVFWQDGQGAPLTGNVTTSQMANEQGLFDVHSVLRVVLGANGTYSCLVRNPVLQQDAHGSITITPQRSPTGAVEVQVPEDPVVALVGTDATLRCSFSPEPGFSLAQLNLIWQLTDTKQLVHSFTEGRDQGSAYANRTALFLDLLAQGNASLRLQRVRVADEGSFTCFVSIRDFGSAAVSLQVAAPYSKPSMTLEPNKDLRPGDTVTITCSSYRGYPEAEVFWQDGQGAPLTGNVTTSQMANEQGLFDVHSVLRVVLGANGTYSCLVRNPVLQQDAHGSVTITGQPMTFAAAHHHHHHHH
Protocol: [The source words this procedure for another species and reports this species under the same test.] (§1) The binding affinity of the purified anti-B7-H3 monoclonal antibodies was determined by surface […]. […] The binding kinetics were derived from SPR measurements using a Biacore T200 instrument and a mAb capture approach (as described in the materials and methods below).
(§2) Biacore T200 SPR instruments were used to measure the binding kinetics of human B7-H3 (4Ig-B7-H3 variant) (analyte) binding to various mAbs (ligands). The assay format was Fc-based capture via immobilized anti-mouse (Fc) (Pierce 31170) or immobilized anti-human (Fc) (Pierce 31125). A standard amine coupling protocol was employed to immobilize the capture reagents via primary amines to the carboxy-methyl (CM) dextran surface of CM5 sensorchips (Biacore); capture antibodies were coupled to a level of approximately 5000RU. For binding kinetic measurements the assay buffer was HBS-EP+ (Biacore): 10 mM Hepes, pH7.4, 150 mM NaCl, 3 mM EDTA, 0.05% polysorbate 20. During the assay, all measurements were referenced against the capture surface alone. Each assay cycle consisted of the following steps: 1) Capture of ligand to approximately 50RU; 2) Analyte injection over both reference and test surface, 240 μL at 80 μL/min, after which the dissociation was monitored for 900 seconds at 80 μL/min; 3) Regeneration of capture surface with low pH glycine. For kinetic determinations analyte injections were 3-point, 9-fold dilution series of 900 nM, 100 nM and 11.11 nM, buffer only injections were included for secondary referencing. Data were processed and fit to a 1:1 binding model using Biacore T200 Evaluation Software to determine the binding kinetic rate constants, ka (on-rate) and kd (off-rate), and the equilibrium dissociation constant (affinity, KD).

[2] = biological target: T1, human B7-H3 (4Ig-B7-H3 variant); assay: Biacore T200 SPR binding kinetics, mAb capture, soluble ECD of human B7-H3; conditions: 1:1 binding model
Protocol: as §1, §2

ka (1/Ms) cynoB7-H3 [1] | kd (1/s) cynoB7-H3 [1] | ka (1/Ms) huB7-H3 [2] | kd (1/s) huB7-H3 [2] | Molecule
240000 M⁻¹ s⁻¹ | 2.9e-05 s⁻¹ | 210000 M⁻¹ s⁻¹ | 3.6e-05 s⁻¹ | Ab18: the murine monoclonal Ab18 (antibody, V domains shown) VH: QVQLQQSAAELARPGASVKMSCKASGYSFTSYTIHWVKQRPGQGLEWIGYINPNSRNTDYNQKFKDETTLTADRSSSTAYMQLISLTSEDSAVYYCARYSGSTPYWYFDVWGAGTTVTVSS VL: QIVLTQSPAILSASPGEKVTMTCRASSSVSYMNWYQQKPGSSPKPWIYATSNLASGVPARFSVSVSGTSHSLTISRVEAEDAATYYCQQWSSNPLTFGAGTKLELK
540000 M⁻¹ s⁻¹ | 0.00096 s⁻¹ | 690000 M⁻¹ s⁻¹ | 0.0011 s⁻¹ | Ab4: murine anti-B7-H3 mAbs; mouse hybridoma derived (antibody, V domains shown) VH: QVQLQQPGAELVKPGASVKLSCKASGYSFTSYWMHWVKQRPGQGLEWIGMIHPNSGSNNYNEKFKSKATLTVDKSSNTAYMQLSSLTSEDSAVYYCARRLGLHFDYWGQGTTLTVSS VL: DIVMTQSQKFMSTPVGDRVSITCKASQNVGTAVAWYQQKPGQSPKLLIYSASNRYTGVPDRFTGSGSGTDFTLTISNMQSEDLADYFCQQYSSYPYTFGGGTKLEIK
160000 M⁻¹ s⁻¹ | 0.00026 s⁻¹ | 58000 M⁻¹ s⁻¹ | 9.9e-05 s⁻¹ | Ab8: murine anti-B7-H3 mAbs; mouse hybridoma derived (antibody, V domains shown) VH: EVKLVESGGGLVKPGGSLKLSCAASGFTFSSYGMSWVRQTPEKRLEWVATISGGGNYTYCPDSVKGRFTISRDNAKNNLYLQMSSLRSEDTALYYCTRQRGYDYHYAMDFWGQGTSVTVSS VL: DIQMTQSPASLSVSVGETVTITCRASENIYSNLAWHQQKQGKSPQLLVYAATNLADGVPSRFSGNGSDTQYSLKINSLQSEDFGSYFCQNFWGTSWTFGGGTKLEIK
200000 M⁻¹ s⁻¹ | 0.0042 s⁻¹ | 41000 M⁻¹ s⁻¹ | 0.00019 s⁻¹ | Ab10: mouse hybridoma derived anti-B7-H3 monoclonal antibodies (mAbs) (antibody, V domains shown) VH: DVQLQESGPGLVKPSQSLSLTCTVTGYSITSDYAWNWIRQFPGNRLEWMGHINYSGITNYNPSLKSRISITRDTSKNQFFLQLYSVTTEDTATYFCARRSLFYYYGSSLYAMDYWGQGTSVTVSS VL: DVVMTQSPFSLPVSLGDQASISCRSSQSLVHSNGNTYLHWYLQKPGQSPKLLIYKVSNRFSGVPDRFSGSGSGTDFTLKISRVEAEDLGVYFCSQSTHVPWTFGGGTKLEIK
55000 M⁻¹ s⁻¹ | 1e-05 s⁻¹ | 38000 M⁻¹ s⁻¹ | 0.00025 s⁻¹ | Ab12: murine anti-B7-H3 mAbs; mouse hybridoma derived (antibody, V domains shown) VH: EVQLVESGGGLVKPGGSLKLSCAASGFTFSSYAMSWVRQTPEKRLEWVATISSGTNYTYYPDSVKGRFTISRDNAKNTLYLQMTSLRSEDTAMYYCARQGRYSWIAYWGQGTLVTVSA VL: DIVLTQSPASLAVSLGQRATISCRASKSVSTSDYSYMHWNQQKPGQPPKLLIYLASNLESGVPARFSGSGSGTDFTLNIHPVEEEDAATYYCQHSRELLTFGAGTKLELK
1.4e+06 M⁻¹ s⁻¹ | 0.28 s⁻¹ | 1.3e+06 M⁻¹ s⁻¹ | 0.012 s⁻¹ | Ab5: murine anti-B7-H3 mAbs; mouse hybridoma derived (antibody, V domains shown) VH: QVQLQQPGDELVKPGASVKLSCKTSGYTFTTDWMHWVKQRPGQGLEWIGMIHPNSGTTNYNEKFKSKAALTVDKSSSTACMQLSSLTSEDSAVYYCARSYWKWYFDVWGTGTTVTVSS VL: QIVLTQSPAIMSASLGEEITLTCSASSSVSYMHWYQQKSGTSPKLLIYSTSNLASGVPSRFSGSGSGTFYSLTISSVEAEDSADYYCHQWTSYMYTFGGGTKLEIK
690000 M⁻¹ s⁻¹ | 0.003 s⁻¹ | 110000 M⁻¹ s⁻¹ | 0.0014 s⁻¹ | Ab14: mouse hybridoma derived anti-B7-H3 monoclonal antibodies (mAbs) (antibody, V domains shown) VH: EVKLVESGGGLVKPGGSLKLSCAASGFTFSSYGMSWVRQTPEKRLEWVATISGGGTNTYYPDSVEGRFTISRDNAKNFLYLQMSSLRSEDTALYYCARHYGSQTMDYWGQGTSVTVSS VL: DIQMTQSPASLSASVGETVTITCRTSGNIHNYLTWYQQKQGKSPQLLVYNAKTLADGVPSRFSGSGSGTQFSLKINSLQPEDFGSYYCQHFWSIMWTFGGGTKLEIK
440000 M⁻¹ s⁻¹ | 0.0037 s⁻¹ | 330000 M⁻¹ s⁻¹ | 0.0058 s⁻¹ | Ab13: mouse hybridoma derived anti-B7-H3 monoclonal antibodies (mAbs) (antibody, V domains shown) VH: DVQLQESGPDLVKPSQSLSLTCTVTGYSITSGYSWHWIRQFPGNKLEWMGYIHSSGSTNYNPSLKSRISINRDTSKNQFFLQLNSVTTEDTATYYCAGYDDYFEYWGQGTTLTVSS VL: DIVMTQSQKFMSTSVGDRVSVTCKASQNVGFNVAWYQQKPGQSPKALIYSASYRYSGVPDRFTGSGSGTDFTLTISNVQSEDLAEYFCQQYNSYPFTFGSGTKLEIK
380000 M⁻¹ s⁻¹ | 0.01 s⁻¹ | 520000 M⁻¹ s⁻¹ | 0.01 s⁻¹ | Ab3: murine anti-B7-H3 mAbs; mouse hybridoma derived (antibody, V domains shown) VH: QVQLQQPGAELVKPGASVKLSCKASGYTFSSYWMHWVKQRPGQGLEWIGLIHPDSGSTNYNEMFKNKATLTVDRSSSTAYVQLSSLTSEDSAVYFCAGGGRLYFDYWGQGTTLTVSS VL: DVVMTQTPLSLPVSLGDQASISCRSSQSLVHSNGDTYLRWYLQKPGQSPKLLIYKVSNRFSGVPDRFSGSGSGTDFTLKITRVEAEDLGVYFCSQSTHVPYTFGGGTKLEIK
750000 M⁻¹ s⁻¹ | 0.0056 s⁻¹ | 140000 M⁻¹ s⁻¹ | 0.0032 s⁻¹ | Ab16: mouse hybridoma derived anti-B7-H3 monoclonal antibodies (mAbs) (antibody, V domains shown) VH: EVKLLESGGGLVQPGGSLKLSCAASGFDFSRYWMSWVRQAPGKGLEWIGEINPDSSTINYTPSLKDKFIISRDNAKNTLYLQMSKVRSEDTALYYCARPGFGNYIYAMDYWGQGTSVTVSS VL: DIQMTQTTSSLSASLGDRVTINCRASQDISNFLNWYQQKPDGTVKLLIYYTSRLYLGVPSRFSGSGSGTDYSLTISNLEQEDIATYFCQQGNTLPPTFGGGTKLEIK
230000 M⁻¹ s⁻¹ | 0.011 s⁻¹ | 120000 M⁻¹ s⁻¹ | 0.0029 s⁻¹ | Ab2: mouse hybridoma derived anti-B7-H3 monoclonal antibodies (mAbs) (antibody, V domains shown) VH: QVQLQQPGAELVKPGASVKLSCKASGYTFTSYWMHWVKQRPGQGLEWIGMIHPDSGTTNYNEKFRSKATLTVDKSSSTAYMQLSSLTSEDSAVYYCAVYYGSTYWYFDVWGTGTTVTVSS VL: DVVMTQTPLSLPVSLGDQAYISCRSSQSLVHINGNTYLHWYRQKPGQSPKLLIYKVSNRFSGVPDRFSGSGSGTDFTLKISRVEAEDLGVYFCSQSTHFPFTFGSGTKLEIK
27000 M⁻¹ s⁻¹ | 7.2e-05 s⁻¹ | 20000 M⁻¹ s⁻¹ | 0.00089 s⁻¹ | Ab11: murine anti-B7-H3 mAbs; mouse hybridoma derived (antibody, V domains shown) VH: EVKLVESGGGLVQPGGSLRLSCATSGFTFTNYYMSWVRQPPGKALEWLGFIRNKANDYTTEYSASVKGRFTISRDNSQSILYLQMNTLRAEDSATYYCARESPGNPFAYWGQGTLVTVSA VL: DIVMTQSPSSLTVTAGEKVTMTCKSSQSLLNSGTQKNFLTWYQQKPGQPPKLLIYWASTRESGVPDRFTGSGSGTDFTLTISSVQAEDLAVYFCQNDYIYPLTFGAGTKLELK
